Assay results reported in US20250263490A1 (VIB VZW, published 2025).
Values belong to the binder of their own block, whether it stands above or below them.

Key:
[1] = target: T1, mouse cation-independent mannose-6-phosphate receptor on cells (mouse, UniProt Q07113 36-2483); experiment: flow cytometry on fixed/permeabilised mouse bEND3 cells (sheet: Binding FACS in bEND3 (Fixed/Permeabilized); legend: internalisation detected upon permeabilisation) [upper graph]
T1 construct: whole, on cells; also called mouse CI-M6PR of bEND3 cells; mCI-M6PR
Source text: (§1) Synthetic DNA fragments encoding VHHs were ordered (IDT, Leuven, Belgium) and subcloned into an E. coli expression vector under control of an IPTG-inducible lac promoter, in frame with N-terminal PelB signal peptide (which directs the recombinant proteins to the periplasmic compartment) and C-terminal FLAG3 and His6 tags. […] VHH proteins were purified from these clones by means of IMAC chromatography followed by desalting according to well established procedures¹⁰⁶. Cells used herein were recovered using cell dissociation non-enzymatic solution (Sigma Aldrich, cat. #C5914-100ML) and resuspended to a final concentration of 1,000,000 cells/mL in FACS buffer. Cells were incubated with different concentrations of purified FLAG3-tagged VHHs for 30 minutes on ice with shaking, followed by washing and incubation with mouse M2 anti-Flag mAb (Sigma Aldrich, cat. #F-1804) in FACS buffer for 30 min on ice with shaking, followed again by washing. […] Flow cytometry and analysis were done on an Attune NxT Flow Cytometer (Thermo Fisher Scientific).

[2] = target: T2, recombinant human domain 1-3His6 of the cation-independent mannose-6-phosphate receptor (human, UniProt P11717 41-467); experiment: BLI, dissoc pH 6, mean of local fits
T2 construct: Biotinylated (NHS-PEG4-biotin) for BLI; Glycosylated; also called hDom1-3His6; hCI-M6PRD1-D3
Experimental: (§2) FIGS. 58 & 59. […] BLI was performed on an Octet Red96 (FortéBio) instrument in kinetics buffer (0.2 M Na₂HPO₄, 0.1 M Na⁺ citrate, 0.01% bovine serum albumin, 0.002% Tween-20). Biotinylated human domain₁₋₃His₆ was immobilized on Streptavidin SA biosensors (Sartorius) to a signal of 0.6 nm. […] Between assays, biosensors were regenerated by three times 10 s exposure to regeneration buffer (10 mM glycine pH 3). The degree of association and dissociation was measured in δ nm over time (s).
(§3) After loading, the tips were incubated with VHHs serially diluted in pH 7.4 kinetic buffer during the association phase and dissociation was performed at pH 7.4, pH 6.5, pH 6.0, pH 5.5 and pH 5.0. All biosensor tips were then regenerated before analysis of the subsequent VHH. Table 13 summarizes the kinetic parameters retrieved after processing and curve fitting of the BLI measurements. When both association and dissociation were performed at pH 7.4, a global fit was performed according to the 1:1 binding model of which the resulting affinity constants (KD), association (kₒₙ) and dissociation rate constants (koff) are shown. For measurements with association at pH 7.4 and dissociation at pH 6.5, 6.0, 5.5 and 5.0, the depicted dissociation rate constants are an average of the parameters determined by local curve fitting of the dissociation of 200, 100 and 50 nM VHH.

[3] = target: T2, recombinant human domain 1-3His6 of the …; experiment: BLI, dissoc pH 5.5, mean of local fits
Experimental: as §2, §3

[4] = target: T3, human cation-independent mannose-6-phosphate receptor, native, on cells (human, UniProt P11717 41-2491); experiment: flow cytometry on HepG2 cells: FLAG3-tagged VHH 30 min on ice, M2 anti-Flag mAb, PE anti-mouse F(ab')2 [upper graph]
T3 construct: whole, on cells; also called native CI-M6PR; cell-surface hCI-M6PR
Source text: as §1
Moreover, cross-reactivity to mouse CI-M6PR was analyzed, in view of the amino acid homology between mouse and human being overall about 80% identity, but for domain 1-3 of CI-M6PR just about 75% identity.

[5] = target: T2, recombinant human domain 1-3His6 of the …; experiment: BLI at pH 7.4, 2nd of 2 repeats; BLI, biotinylated hDom1-3His6 on streptavidin tips, pH 7.4, experiment 2
[6] = target: T2, recombinant human domain 1-3His6 of the …; experiment: BLI at pH 7.4, 1st of 2 repeats; BLI, biotinylated hDom1-3His6 on streptavidin tips, pH 7.4, experiment 1
Experimental: For each of the 11 anti-CI-M6PR VHHs, a biolayer interferometry (BLI) experiment was performed in which the hDom₁₋₃His₆ was biotinylated and coupled to streptavidin biosensor tips. Afterwards, the tips were incubated with serially diluted VHHs during the association phase and dissociation was performed at pH 7.4. Similarly, dissociation was performed at pH 7.0, pH 6.0 and pH 5.0 as well after regeneration of the biosensor tips. […] The anti-CI-M6PR antibody (clone 2G11) and GBP were used as positive and negative controls, respectively.
Analysis of the binding kinetics was performed using an Octet Red96 (FortéBio) device with Streptavidin SA Biosensor tips (VWR 733-2145). Therefore, 1 mL of human domain₁₋₃His₆ (0.5 mg/mL in 50 mM MES, 150 mM NaCl, pH 6.5) was incubated at room temperature for 30 minutes with EZ-Link™ NHS-PEG4-Biotin (1 mg) (Thermo Fischer A39259) and NaHCO₃ (100 mM). Biotinylated human domain₁₋₃His₆ was purified using a Zeba spin desalting Column™ (7K MWCO, 2 mL, Thermo Fischer 89890) and 1 μg/mL was used for immobilization on the Streptavidin SA Biosensor tips. The loaded tips were dipped into a particular anti-CI-M6PR VHH solution, serially diluted in kinetics buffer (0.2M NaH₂PO₄, 0.1M Na⁺ citrate, 0.01% BSA, 0.002% Tween20, pH 7.4). This was followed by dissociation of the particular anti-CI-M6PR VHH in kinetics buffer of pH 7.4, followed by regeneration in Glycine (10 mM, pH 3) and neutralisation. Same cycle was repeated but the dissociation was performed at pH 7.0, 6.0, 5.0, 4.5 and 4.0. A reference well and reference sensors were subtracted from ligand sensors afterwards and Savitsky-Golay filtering was applied on the data. Fitting of the data was performed using a 1:1 model, grouped per pH of dissociation.

T1 sequence (Q07113 36-2483): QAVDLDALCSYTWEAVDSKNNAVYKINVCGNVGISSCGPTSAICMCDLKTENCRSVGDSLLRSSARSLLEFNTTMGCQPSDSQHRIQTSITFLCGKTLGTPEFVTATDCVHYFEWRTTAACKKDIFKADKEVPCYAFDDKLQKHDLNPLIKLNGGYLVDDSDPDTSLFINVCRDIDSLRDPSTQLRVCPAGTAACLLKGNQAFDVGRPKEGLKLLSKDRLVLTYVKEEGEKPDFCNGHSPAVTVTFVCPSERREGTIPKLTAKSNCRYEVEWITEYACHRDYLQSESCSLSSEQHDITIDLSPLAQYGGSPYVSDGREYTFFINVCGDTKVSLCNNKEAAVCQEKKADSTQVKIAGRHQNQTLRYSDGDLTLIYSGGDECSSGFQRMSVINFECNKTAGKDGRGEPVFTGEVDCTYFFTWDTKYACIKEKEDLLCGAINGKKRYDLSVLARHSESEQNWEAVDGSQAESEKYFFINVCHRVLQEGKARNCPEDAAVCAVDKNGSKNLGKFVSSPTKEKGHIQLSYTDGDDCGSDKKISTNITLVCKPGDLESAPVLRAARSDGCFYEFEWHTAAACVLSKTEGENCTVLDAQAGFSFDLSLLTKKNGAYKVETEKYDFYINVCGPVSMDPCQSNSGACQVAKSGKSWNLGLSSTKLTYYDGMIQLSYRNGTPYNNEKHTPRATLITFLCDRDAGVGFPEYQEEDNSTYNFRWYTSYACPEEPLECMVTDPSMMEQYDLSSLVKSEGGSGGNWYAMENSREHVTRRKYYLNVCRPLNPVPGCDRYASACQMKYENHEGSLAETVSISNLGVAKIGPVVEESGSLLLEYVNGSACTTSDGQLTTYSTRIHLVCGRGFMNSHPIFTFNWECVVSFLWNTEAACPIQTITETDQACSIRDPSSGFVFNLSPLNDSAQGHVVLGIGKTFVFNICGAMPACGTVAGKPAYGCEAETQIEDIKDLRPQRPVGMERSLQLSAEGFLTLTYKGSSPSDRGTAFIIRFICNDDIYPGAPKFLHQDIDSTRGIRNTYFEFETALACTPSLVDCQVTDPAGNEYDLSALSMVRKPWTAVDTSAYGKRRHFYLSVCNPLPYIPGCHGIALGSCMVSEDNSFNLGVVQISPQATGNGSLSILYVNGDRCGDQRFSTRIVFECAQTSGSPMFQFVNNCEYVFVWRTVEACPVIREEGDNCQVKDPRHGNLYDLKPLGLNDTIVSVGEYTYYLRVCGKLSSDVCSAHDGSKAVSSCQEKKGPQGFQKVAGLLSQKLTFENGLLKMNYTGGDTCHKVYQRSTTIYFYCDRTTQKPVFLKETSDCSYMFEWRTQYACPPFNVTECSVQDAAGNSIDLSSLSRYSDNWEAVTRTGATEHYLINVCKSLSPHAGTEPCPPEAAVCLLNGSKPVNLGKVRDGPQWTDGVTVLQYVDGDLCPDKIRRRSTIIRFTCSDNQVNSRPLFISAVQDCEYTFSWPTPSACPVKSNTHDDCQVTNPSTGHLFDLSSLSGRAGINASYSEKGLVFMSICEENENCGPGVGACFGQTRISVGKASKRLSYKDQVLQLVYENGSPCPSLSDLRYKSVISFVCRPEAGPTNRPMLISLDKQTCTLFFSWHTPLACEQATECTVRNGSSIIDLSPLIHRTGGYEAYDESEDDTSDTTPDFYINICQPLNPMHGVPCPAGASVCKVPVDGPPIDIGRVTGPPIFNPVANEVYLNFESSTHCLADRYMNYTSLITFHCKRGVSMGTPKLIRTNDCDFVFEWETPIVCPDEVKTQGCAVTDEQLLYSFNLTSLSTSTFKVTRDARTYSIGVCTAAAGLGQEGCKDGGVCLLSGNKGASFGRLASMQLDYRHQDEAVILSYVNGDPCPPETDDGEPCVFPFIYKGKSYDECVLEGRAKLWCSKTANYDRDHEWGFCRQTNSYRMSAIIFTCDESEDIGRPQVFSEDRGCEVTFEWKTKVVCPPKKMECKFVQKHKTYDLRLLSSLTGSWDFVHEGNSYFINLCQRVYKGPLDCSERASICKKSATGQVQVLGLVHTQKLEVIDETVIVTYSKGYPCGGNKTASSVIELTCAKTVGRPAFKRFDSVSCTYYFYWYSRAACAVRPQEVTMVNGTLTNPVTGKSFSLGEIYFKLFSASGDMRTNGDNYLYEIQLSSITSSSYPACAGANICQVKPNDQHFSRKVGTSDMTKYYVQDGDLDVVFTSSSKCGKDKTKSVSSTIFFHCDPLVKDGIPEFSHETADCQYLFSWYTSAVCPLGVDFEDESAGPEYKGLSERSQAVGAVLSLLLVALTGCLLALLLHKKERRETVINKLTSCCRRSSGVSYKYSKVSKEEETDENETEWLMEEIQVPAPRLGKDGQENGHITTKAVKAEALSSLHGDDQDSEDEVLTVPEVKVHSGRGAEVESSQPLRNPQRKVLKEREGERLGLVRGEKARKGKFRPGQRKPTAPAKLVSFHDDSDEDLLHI

EC50 (read off the curve) [1]: ~50 nM
B1: anti-CI-M6PR VHH7 (VHH)
VHH: QVQLQESGGGLVQPGGSLRLSCAASGIIFSDNRMDWYRQAPGKQREWVATLASYGWKTYADSVKGRFTISRDNTKNTVYLRMNSLKPEDTAVYYCKASSPVLNDIWGQGTQVTVSS
notes: His6-tagged (Pichia pastoris)

koff [2]: 0.0051 s⁻¹
koff [3]: 0.0063 s⁻¹
B2: anti-CI-M6PR VHH 1H11 (VHH)
VHH: QVQLQESGGGLVQPGGSLRLSCAASGIIFSDNRMDWYRQAPGKQREWVATLASYGWKTYADSVKDRFTISRDNAKNTVNLYMNSLQPEDTAVYYCNSGQYWGQGTQVTVSS
notes: made in E. coli WK6, His-tag purified

EC50 (read off the curve) [4]: ~2 nM
B3: anti-CI-M6PR VHH8 (VHH)
VHH: QVQLQESGGGLVQAGGSLRLSCEASGRTFNTYNWGWFRQAPGKEREFVAAIRWSSSKTSYADSVKGRFTISRDNAKNTIYLQMNSLKPEDTAVYYCAASIVDFTTNPSHFGSWGQGTQVTVSS
notes: His6-tagged (Pichia pastoris)

Kd [5]: 2.34 nM
kon [5]: 571000 M⁻¹ s⁻¹
Kd [6]: 2.33 nM
koff [6]: 0.00133 s⁻¹
kon [6]: 571000 M⁻¹ s⁻¹
B4: anti-CI-M6PR VHH4 (VHH)
VHH: QVQLQESGGGLVQAGGSLRLSCAASGRTFSNYVMGWFRQAPGKEREFVGSISQGGKMTYYPDSVKGRFTISRDNAKNTMYLQMDGLKPEDTAVYYCAVSRGYPMVRVSEVDYWGQGTQVTVSS
notes: His6-tagged; made in Pichia pastoris
